Values of other authors, collected in article PMC8359934.

Target: sNUCB1 (Homo sapiens) (UniProt Q02818)
Test: SEC-MALS

- Kd: 260 nM
Substance: sNUCB1 (from UniProt Q02818)
